T1: recombinant human matrilin-3 protein (human, UniProt O15232 29-486)
T1 construct: Bought from R&D Systems; It was biotinylated through an Avi tag for the library selection; also called human recombinant matrilin-3
T1 sequence: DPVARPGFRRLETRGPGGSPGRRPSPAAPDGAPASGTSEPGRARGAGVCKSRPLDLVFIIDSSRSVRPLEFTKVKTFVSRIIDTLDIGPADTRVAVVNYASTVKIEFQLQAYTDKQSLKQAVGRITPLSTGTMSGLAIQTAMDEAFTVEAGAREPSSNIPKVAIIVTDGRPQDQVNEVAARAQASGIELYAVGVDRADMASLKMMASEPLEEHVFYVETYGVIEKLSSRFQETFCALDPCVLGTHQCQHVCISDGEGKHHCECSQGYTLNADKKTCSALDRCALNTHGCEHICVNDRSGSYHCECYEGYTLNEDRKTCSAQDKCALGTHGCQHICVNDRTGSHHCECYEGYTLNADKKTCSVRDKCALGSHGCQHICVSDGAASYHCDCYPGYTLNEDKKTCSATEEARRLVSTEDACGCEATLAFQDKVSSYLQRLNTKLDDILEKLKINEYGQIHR

T2: recombinant mouse matrilin-3 protein (mouse, UniProt O35701 28-481, limits assumed)
T2 construct: also called mouse recombinant matrilin-3; His-Tagged recombinant mouse matrilin-3
T2 sequence (looked up): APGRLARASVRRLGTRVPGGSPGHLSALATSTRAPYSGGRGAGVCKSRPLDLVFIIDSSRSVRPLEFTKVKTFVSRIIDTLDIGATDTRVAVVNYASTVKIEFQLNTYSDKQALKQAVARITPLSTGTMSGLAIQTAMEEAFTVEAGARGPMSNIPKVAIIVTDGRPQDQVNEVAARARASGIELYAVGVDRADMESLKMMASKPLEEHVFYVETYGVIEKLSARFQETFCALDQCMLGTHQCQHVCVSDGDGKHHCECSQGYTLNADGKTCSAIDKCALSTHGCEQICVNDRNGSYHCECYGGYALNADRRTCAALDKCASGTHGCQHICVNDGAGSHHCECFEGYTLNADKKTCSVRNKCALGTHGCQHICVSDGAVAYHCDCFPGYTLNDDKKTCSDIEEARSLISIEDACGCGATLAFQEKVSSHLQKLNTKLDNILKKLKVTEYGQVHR

B1: matrilin-3-binding antibody fragment 13 (clone 13 scFv fused with human IgG1 Fc fragment) (Fc fusion)
scFv: LVQSGAEVKKPGASVKVSCKASGGTFSSYAISWVRQAPGQGLEWMGGIIPIFGTANYAQKFQGRVTITADKSTSTAYMELSSLRSEDTAVYYCARGQGYWFDPWGQGTLVTVSSGGGGSGGGASSGGGSDVQLTQSPSSLSASVGDRVTITCQASQDISNYLNWYQQKPGKAPKLLIYDASNLETGVPSRFSGSGSGTDFTFTISSLQPEDIATYYCQQYDNLPLTFGGGTKLEIK
notes: Tested as scFv-Fc (culture supernatant or protein A purified); not shown: human IgG1 Fc fragment encoded by the modified pSecTagB vector; Avi tag downstream of the Fc in the vector
B2: matrilin-3-binding antibody fragment 22 (clone 22 scFv fused with human IgG1 Fc fragment) (Fc fusion)
scFv: LQQSGPGLVKPSQTLSLTCAISGDSVSSNSAAWNWIRQSPSRGLEWLGRTYYGSKWYNDYAPSVKSRISINPDTSKNQFSLQLNSVTPEDTAVYYCTRGIWNAFDIWGQGTMVTVSSGGGGSGGGASGGGGSSSELTQDPAVSVALGQTVRITCQGDSLRSYYASWYQQKPGQAPLLVIYDRDNRPSGIPDRFSGSSSGNTASLTITGAQAEDEADYYCQSYDTSLSWVFGGGTQLTVL
notes: Tested as scFv-Fc; not shown: human IgG1 Fc fragment encoded by the modified pSecTagB vector; Avi tag downstream of the Fc in the vector

Tests used:
[1] = molecular target: T1, recombinant human matrilin-3 protein; test: ELISA, coated recombinant matrilin-3, purified scFv-Fc titrated 230 nM to 0.014 nM, HRP anti-Fc
[2] = molecular target: T2, recombinant mouse matrilin-3 protein; test: as above

Binder | EC50 [1] | EC50 [2]
B1 | < 1 nM | < 1 nM
B2 | < 1 nM | < 1 nM
